Experimental data taken from paper PMC6599655.

Tests used:
[1] = Western blot of 293T cell lysates; details: glycan lost; control: wild type
[2] = Western blot of concentrated culture supernatant vs lysate; details: glycan lost; control: wild type

B1: Procollagen C-proteinase enhancer protein (PCOLCE): N29Q (protein)
parent chain: MLPAATASLLGPLLTACALLPFAQGQTPNYTRPVFLCGGDVKGESGYVASEGFPNLYPPNKECIWTITVPEGQTVSLSFRVFDLELHPACRYDALEVFAGSGTSGQRLGRFCGTFRPAPLVAPGNQVTLRMTTDEGTGGRGFLLWYSGRATSGTEHQFCGGRLEKAQGTLTTPNWPESDYPPGISCSWHIIAPPDQVIALTFEKFDLEPDTYCRYDSVSVFNGAVSDDSRRLGKFCGDAVPGSISSEGNELLVQFVSDLSVTADGFSASYKTLPRGTAKEGQGPGPKRGTEPKVKLPPKSQPPEKTEESPSAPDAPTCPKQCRRTGTLQSNFCASSLVVTATVKSMVREPGEGLAVTVSLIGAYKTGGLDLPSPPTGASLKFYVPCKQCPPMKKGVSYLLMGQVEENRGPVLPPESFVVLHRPNQDQILTNLSKRKCPSQPVRAAASQD
- expression_or_secretion [1]: decreases
- expression_or_secretion [2]: decreases
